Earlier results in patent US10064909B2, “Compositions and methods for chronic use of a weight-gaining compound” (priority 2015, dated 2018).
Ends that are not written are not given here.

Conditions: in vivo; cited from earlier work

Ghrelin: hormone produced predominantly in the glandular stomach; endogenous ligand of the ghrelin receptor (GHS-R) (GSSFLSPEHQRVQQRKESKKPPAKLQPR; ends and bridges not checked; UniProt Q9UBU3 24-51, looked up)
half-life in the blood: approximately ten minutes
